Earlier results as cited in PMC4028615.

Target: integrin (LFA-1) (Homo sapiens) (UniProt P20701)
Sequence (P20701 26-1090, chain 1 of 2): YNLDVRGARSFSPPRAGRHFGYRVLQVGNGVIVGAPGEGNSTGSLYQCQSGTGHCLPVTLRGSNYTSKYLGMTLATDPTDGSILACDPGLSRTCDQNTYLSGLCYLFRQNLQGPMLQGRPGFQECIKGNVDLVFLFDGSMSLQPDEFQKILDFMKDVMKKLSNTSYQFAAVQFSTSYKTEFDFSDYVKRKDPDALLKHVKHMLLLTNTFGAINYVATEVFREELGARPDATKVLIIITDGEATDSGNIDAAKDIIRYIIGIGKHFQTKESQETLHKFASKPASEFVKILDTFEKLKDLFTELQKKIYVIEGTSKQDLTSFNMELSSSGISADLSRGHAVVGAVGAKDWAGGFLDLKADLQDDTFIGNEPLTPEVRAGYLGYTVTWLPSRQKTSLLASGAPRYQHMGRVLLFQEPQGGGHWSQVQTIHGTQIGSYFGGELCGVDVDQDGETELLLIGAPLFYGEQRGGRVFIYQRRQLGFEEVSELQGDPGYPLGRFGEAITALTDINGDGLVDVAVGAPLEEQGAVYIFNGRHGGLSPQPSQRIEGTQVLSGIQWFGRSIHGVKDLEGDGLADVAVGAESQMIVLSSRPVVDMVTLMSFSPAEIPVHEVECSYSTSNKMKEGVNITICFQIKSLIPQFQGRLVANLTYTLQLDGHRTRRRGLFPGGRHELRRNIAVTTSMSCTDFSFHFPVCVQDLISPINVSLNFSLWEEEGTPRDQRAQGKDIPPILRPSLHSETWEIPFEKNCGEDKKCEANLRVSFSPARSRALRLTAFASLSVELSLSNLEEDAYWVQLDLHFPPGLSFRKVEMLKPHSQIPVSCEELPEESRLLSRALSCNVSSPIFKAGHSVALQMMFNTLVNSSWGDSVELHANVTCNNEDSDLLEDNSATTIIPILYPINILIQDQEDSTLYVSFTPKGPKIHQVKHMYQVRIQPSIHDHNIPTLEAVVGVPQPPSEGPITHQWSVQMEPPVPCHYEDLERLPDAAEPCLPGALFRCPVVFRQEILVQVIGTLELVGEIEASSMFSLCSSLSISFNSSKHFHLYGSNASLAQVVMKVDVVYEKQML
Sequence (P05107 23-700, chain 2 of 2, further chain): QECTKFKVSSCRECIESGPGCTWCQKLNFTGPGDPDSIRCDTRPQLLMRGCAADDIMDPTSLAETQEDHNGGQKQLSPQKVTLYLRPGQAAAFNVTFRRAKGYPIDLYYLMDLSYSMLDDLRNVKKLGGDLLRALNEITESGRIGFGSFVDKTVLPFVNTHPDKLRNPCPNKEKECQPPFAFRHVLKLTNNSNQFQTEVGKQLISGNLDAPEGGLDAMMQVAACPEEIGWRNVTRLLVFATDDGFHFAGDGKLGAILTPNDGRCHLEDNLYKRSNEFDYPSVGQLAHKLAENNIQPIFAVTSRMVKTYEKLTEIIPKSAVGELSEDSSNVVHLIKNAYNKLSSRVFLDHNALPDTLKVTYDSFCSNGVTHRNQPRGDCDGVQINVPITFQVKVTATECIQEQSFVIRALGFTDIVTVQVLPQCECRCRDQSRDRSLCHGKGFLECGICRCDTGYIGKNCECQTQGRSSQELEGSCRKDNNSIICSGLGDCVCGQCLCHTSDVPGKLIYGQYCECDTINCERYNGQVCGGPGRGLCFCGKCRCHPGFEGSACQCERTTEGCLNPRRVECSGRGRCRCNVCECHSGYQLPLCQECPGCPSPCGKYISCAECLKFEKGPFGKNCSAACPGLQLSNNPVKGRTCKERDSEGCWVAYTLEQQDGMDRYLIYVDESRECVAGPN

Sequence of ICAM-1 (P05362 28-480): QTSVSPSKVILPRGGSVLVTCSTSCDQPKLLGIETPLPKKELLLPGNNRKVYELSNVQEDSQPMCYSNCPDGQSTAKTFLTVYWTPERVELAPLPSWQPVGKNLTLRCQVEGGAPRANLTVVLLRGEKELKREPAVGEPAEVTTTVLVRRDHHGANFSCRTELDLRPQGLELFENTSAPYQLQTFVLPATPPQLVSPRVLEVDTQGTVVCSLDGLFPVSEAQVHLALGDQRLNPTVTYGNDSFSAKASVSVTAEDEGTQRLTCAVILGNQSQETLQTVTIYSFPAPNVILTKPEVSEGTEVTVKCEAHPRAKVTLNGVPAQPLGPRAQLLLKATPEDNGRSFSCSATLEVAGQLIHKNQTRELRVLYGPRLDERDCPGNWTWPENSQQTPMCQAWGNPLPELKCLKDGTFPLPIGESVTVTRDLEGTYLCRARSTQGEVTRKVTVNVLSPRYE

- Kd: 100 nM
Substance: ICAM-1 (from UniProt P05362)
